Measured values published in paper PMC11488100, “PET imaging of CXCR4 expression using [^18F]AlF-NOTA-QHY-04 for hematologic malignancy and solid tumors” (Theranostics, 2024).
Bridge positions count the residues as written; N and C are the ends. Square brackets hold non-standard residues; d marks the D form. Peptide text beside a SMILES is read from it. * marks the point of attachment. NOTA = O=C(O)CN1CCN(CC(=O)O)CCN(CC(=O)*)CC1; 2Nal = N[C@@H](Cc1ccc2ccccc2c1)C(=O)O; Pen = CC(C)(S)[C@H](N)C(=O)O; 4Amb = NCc1ccc(C(=O)O)cc1; Ahx = NCCCCCC(=O)O

System: NCI-H69 subcutaneous tumor xenografts
Design: species or system mice
Settings: mouse, in vivo
Method: The xenografted mice were injected with [^18F]AlF-NOTA-QHY-04 (3.70 ± 0.74 MBq) in about 150 μL saline via the tail vein. All the PET scans were performed with micro-PET/CT (IRIS PET/CT, Inviscan, France) and the radioactivity were expressed as %ID/mL. Detailed procedures for dynamic, static imaging and blocking studies are provided in the supplemental materials. Biodistribution studies were conducted using mice with xenografted A549/CXCR4 tumors with and without blocking (n = 3). The mice were sacrificed immediately after static PET/CT 1 h post injection (p.i.), then the tumors and organs were quickly collected, weighed and counted for radioactivity by a γ-counter. The γ-counter activity readings were background- and decay-corrected and represented as the percentage of injected dose per gram of tissue (%ID/g).
7.4, 150 mM NaCl, 0.005% tween-20) with continuous shaking at 1000 rpm. Biotinylated CXCR4 was immobilized on Super Streptavidin (SSA) biosensors by immersing the sensors in a protein solution of 35 µg/mL. […]
and 1 μM NOTA-QHY-04 sample) was prepared and flowed. […] Prior to fitting, the data were baseline-subtracted and analyzed using a 1:1 binding model and the ForteBio data analysis software. Mean Kd value was determined by applying a global fit to all the data. […]
NaOH. Finally, the cell lysates were collected and measured by an automatic gamma counter (2470 Wizard2, PerkinElmer). […]

C[C@H](NC(=O)[C@H](CCCNC(=N)N)NC(=O)CCCCCNC(=O)c1ccc(CNC(=O)CN2CCN(CC(=O)O)CCN(CC(=O)O)CC2)cc1)C(=O)N[C@@H]1CSSC(C)(C)[C@@H](C(=O)O)NC(=O)[C@H](Cc2c[nH]cn2)NC(=O)[C@H](Cc2ccc3ccccc3c2)NC(=O)[C@H](CCCNC(=N)N)NC1=O [[^18F]AlF-NOTA-QHY-04] ({NOTA-4Amb-Ahx}-RA[dC]R[2Nal]H[Pen]-OH; disulfide 3-7)
time of highest tumor uptake: about 50 min
